Data from US12281340B2, “Method of producing N-acyl-amino group-containing compound” (AJINOMOTO CO., INC., priority 2018, dated 2025).

Legend:
Assay type in all cases: biochemical
Set-up in all cases: key: +: Detected; −: Not detected
[1] = Synthesis of N-acylamino acids from various fatty acids using purified acylamino acid synthetase, UPLC-MS detection
Experimental: 0.1 mL of a reaction solution containing 50 mM Tris-HCl, 5 mM amino acid, 5 mM sodium fatty acid (3 mM of sodium palmitate or sodium stearate), 10 mM ATP, 10 mM MgCl2, 1 mM DTT, 200 μg/mL of the purified enzyme, pH 8.0 was shaken at 25° C. for 24 hours. When sodium palmitate or sodium stearate was used, methanol at a final concentration of 10% (v/v) was contained in the reaction solution. As the amino acid, L-Asp was used in AtGH3-6, OsGH3-8, AtGH3-5, AtGH3-12, L-Ile was used in AtJAR1, L-Ala was used in AtGH3-10, SsGH3, L-Glu was used in AtGH3-17, Gly was used in CfHP, L-Lys was used in PsIAAL, and L-Cys was used in PaHP. After completion of the reaction, 0.4 mL of the reaction stop solution (1% (v/v) phosphoric acid, 75% (v/v) methanol) was added, and the mixture was filtrated through the filter followed by being subjected to the UPLC-MS analysis to detect a signal of a molecular weight corresponding to the N-acylamino acid.
The condition for the UPLC-MS analysis is as follows.
(§1) Apparatus: ACQUITY UPLC (Waters)
Column: ACQUITY UPLC BEH C18 1.7 μm 2.1×100 mm Column (Waters), mobile phase A: 0.1% formic acid; mobile phase B: acetonitrile
• Flow rate: 0.6 mL/minute • Injection amount: 2 μL • Column temperature: 40° C. • Ionization method: ESI-negative
As a result of the UPLC-MS analysis, the signal of the molecular weight corresponding to the appropriate N-acylamino acid was confirmed in the reaction solution containing the enzyme in combination with sodium fatty acid shown in Table 7 below.

[2] = Synthesis of N-caprinoylamino acid using purified acylamino acid synthetase, UPLC-MS detection; settings: +ATP
Experimental: 2.0 mL of a reaction solution containing 50 mM Tris-HCl, 5 mM amino acid, 5 mM sodium caprate, 10 mM ATP, 10 mM MgCl2, 1 mM DTT, 50 μg of the purified enzyme, pH 8.0 was incubated at 25° C. for 24 hours. After completion of the reaction, 0.8 mL of a reaction stop solution (1% (v/v) phosphoric acid, 75% (v/v) methanol) was added, and the mixture was filtrated through a filter followed by being subjected to the UPLC-MS analysis to detect a signal of a molecular weight corresponding to an N-caprinoyl amino acid.
A UPLC-MS analysis condition is as follows.
as §1
• Column: ACQUITY UPLC BEH C18 1.7 2.1×100 mm Column (Waters) • Mobile phase A: 0.1% formic acid • Mobile phase B: acetonitrile Gradient
• Flow rate: 0.6 mL/min • Injection amount: 2 μL • Column temperature: 40° C. • Ionization method: ESI-negative
As a result of the UPLC-MS analysis, the signal of the molecular weight corresponding to the N-caprinoyl amino acid was confirmed in the reaction solution combining the enzyme and the amino acid shown in Table 3 below.

[3] = Synthesis of N-caprinoyl-amino acid derivative, N-caprinoyl-D-amino acid and N-caprinoyl-peptide using purified acylamino acid synthetase, UPLC-MS detection; settings: +ATP
Experimental: 0.2 mL of a reaction solution containing 50 mM Tris-HCl, 5 mM amino acid derivative or D-amino acid or peptide, 5 mM sodium caprate, 10 mM ATP, 10 mM MgCl2, 1 mM DTT, 50 μg/mL of the purified enzyme, pH 8.0 was incubated at 25° C. for 24 hours. After completion of the reaction, 0.8 mL of the reaction stop solution (1% (v/v) phosphoric acid, 75% (v/v) methanol) was added, and the mixture was filtrated through the filter followed by being subjected to the UPLC-MS analysis to detect a signal of a molecular weight corresponding to an N-caprinoyl-amino acid derivative, an N-caprinoyl-amino acid or an N-caprinoyl-peptide. A condition for the UPLC-MS analysis is as described in Example 2.
As a result of the UPLC-MS analysis, the signal of the molecular weight corresponding to the N-caprinoyl-amino acid derivative, or N-caprinoyl-amino acid, or N-caprinoyl-peptide was confirmed in the reaction solution containing the enzyme in combination with the amino acid derivative or the D-amino acid or the peptide shown in Table 4 below.

signal of molecular weight corresponding to N-acylamino acid ([1]; substrates L-Ile and Capric acid): +
signal of molecular weight corresponding to N-acylamino acid ([1]; substrates L-Ile and Caproic acid): +
signal of molecular weight corresponding to N-acylamino acid ([1]; substrates L-Ile and Caprylic acid): +
signal of molecular weight corresponding to N-acylamino acid ([1]; substrates L-Ile and Lauric acid): +
signal of molecular weight corresponding to N-acylamino acid ([1]; substrates L-Ile and Linoleic acid): −
signal of molecular weight corresponding to N-acylamino acid ([1]; substrates L-Ile and Palmitic acid): −
signal of molecular weight corresponding to N-acylamino acid ([1]; substrates L-Ile and myristic acid): −
signal of molecular weight corresponding to N-caprinoyl amino acid ([2]; substrates GABA and sodium caprate): +
signal of molecular weight corresponding to N-caprinoyl amino acid ([2]; substrates Gly and sodium caprate): +
signal of molecular weight corresponding to N-caprinoyl amino acid ([2]; substrates L-Ala and sodium caprate): +
signal of molecular weight corresponding to N-caprinoyl amino acid ([2]; substrates L-Arg and sodium caprate): +
signal of molecular weight corresponding to N-caprinoyl amino acid ([2]; substrates L-Asn and sodium caprate): +
signal of molecular weight corresponding to N-caprinoyl amino acid ([2]; substrates L-Asp and sodium caprate): +
signal of molecular weight corresponding to N-caprinoyl amino acid ([2]; substrates L-Cys and sodium caprate): −
signal of molecular weight corresponding to N-caprinoyl amino acid ([2]; substrates L-Gln and sodium caprate): +
signal of molecular weight corresponding to N-caprinoyl amino acid ([2]; substrates L-Glu and sodium caprate): +
signal of molecular weight corresponding to N-caprinoyl amino acid ([2]; substrates L-His and sodium caprate): +
signal of molecular weight corresponding to N-caprinoyl amino acid ([2]; substrates L-Ile and sodium caprate): +
signal of molecular weight corresponding to N-caprinoyl amino acid ([2]; substrates L-Leu and sodium caprate): +
signal of molecular weight corresponding to N-caprinoyl amino acid ([2]; substrates L-Lys and sodium caprate): −
signal of molecular weight corresponding to N-caprinoyl amino acid ([2]; substrates L-Met and sodium caprate): +
signal of molecular weight corresponding to N-caprinoyl amino acid ([2]; substrates L-Phe and sodium caprate): +
signal of molecular weight corresponding to N-caprinoyl amino acid ([2]; substrates L-Pro and sodium caprate): +
signal of molecular weight corresponding to N-caprinoyl amino acid ([2]; substrates L-Ser and sodium caprate): +
signal of molecular weight corresponding to N-caprinoyl amino acid ([2]; substrates L-Thr and sodium caprate): +
signal of molecular weight corresponding to N-caprinoyl amino acid ([2]; substrates L-Trp and sodium caprate): +
signal of molecular weight corresponding to N-caprinoyl amino acid ([2]; substrates L-Tyr and sodium caprate): +
signal of molecular weight corresponding to N-caprinoyl amino acid ([2]; substrates L-Val and sodium caprate): +
signal of molecular weight corresponding to N-caprinoyl amino acid ([2]; substrates β-Ala and sodium caprate): +
signal of molecular weight corresponding to N-caprinoyl compound ([3]; substrates Carnosine and sodium caprate): −
signal of molecular weight corresponding to N-caprinoyl compound ([3]; substrates D-Ala and sodium caprate): +
signal of molecular weight corresponding to N-caprinoyl compound ([3]; substrates D-Asp and sodium caprate): +
signal of molecular weight corresponding to N-caprinoyl compound ([3]; substrates D-Cys and sodium caprate): −
signal of molecular weight corresponding to N-caprinoyl compound ([3]; substrates D-Glu and sodium caprate): +
signal of molecular weight corresponding to N-caprinoyl compound ([3]; substrates D-Ile and sodium caprate): +
signal of molecular weight corresponding to N-caprinoyl compound ([3]; substrates D-Lys and sodium caprate): −
signal of molecular weight corresponding to N-caprinoyl compound ([3]; substrates L-Asp-L-Phe and sodium caprate): −
signal of molecular weight corresponding to N-caprinoyl compound ([3]; substrates L-Gly-L-Gly and sodium caprate): +
signal of molecular weight corresponding to N-caprinoyl compound ([3]; substrates Sarcosine and sodium caprate): +
signal of molecular weight corresponding to N-caprinoyl compound ([3]; substrates Taurine and sodium caprate): +
B1: AtJAR1: Jasmonic acid-amido synthetase JAR1 from Arabidopsis thaliana, His-tagged (protein, listed as Arabidopsis thaliana)
chain: MLEKVETFDMNRVIDEFDEMTRNAHQVQKQTLKEILLKNQSAIYLQNCGLNGNATDPEEAFKSMVPLVTDVELEPYIKRMVDGDTSPILTGHPVPAISLSSGTSQGRPKFIPFTDELMENTLQLFRTAFAFRNRDFPIDDNGKALQFIFSSKQYISTGGVPVGTATTNVYRNPNFKAGMKSITSPSCSPDEVIFSPDVHQALYCHLLSGILFRDQVQYVFAVFAHGLVHAFRTFEQVWEEIVTDIKDGVLSNRITVPSVRTAMSKLLTPNPELAETIRTKCMSLSNWYGLIPALFPNAKYVYGIMTGSMEPYVPKLRHYAGDLPLVSHDYGSSEGWIAANVTPRLSPEEATFAVIPNLGYFEFLPVSETGEGEEKPVGLTQVKIGEEYEVVITNYAGLYRYRLGDVVKVIGFYNNTPQLKFICRRNLILSINIDKNTERDLQLSVESAAKRLSEEKIEVIDFSSYIDVSTDPGHYAIFWEISGETNEDVLQDCCNCLDRAFIDAGYVSSRKCKTIGALELRVVAKGTFRKIQEHFLGLGSSAGQFKMPRCVKPSNAKVLQILCENVVSSYFSTAF
modifications: His-tag
notes: Jasmonic acid-amido synthetase JAR1 from Arabidopsis thaliana, His-tagged
